Data taken from patent publication US20120121589A1, “MODIFIED EGFR ECTODOMAIN” (WAYNE STATE UNIVERSITY, priority 2009, published 2012).
“Also recorded” adds a separate entry of the source. *: point of attachment. Cbz = O=C(OCc1ccccc1)*; CH2F = FC*

Legend:
MDA-MB-468 xenografts = MDA-MB-468 xenografts in SCID mice, tumor growth; format: in vivo
Protocol: Severe combined immunodeficient mice xenografts of MDA-MB-468 cells included the following aspects. […] When tumor burden reached 1,500 to 2,000 mg, mice were euthanized. The tumors were removed, cut into 20 to 30 mg fragment, and subsequently transplanted (s.c.) bilaterally into similarly conditioned 28 animals. […] Treatment was started on day 7 and continued until day 23. Animals and tumor burden were followed for up to 55 days. Tumor measurements were carried out at multiple time points during the experimental period. Mice were weighed and monitored for signs of toxicity. Tumor weights in SCID mice were estimated as tumor weight (mg)=(A×B2)/2, where A and B are the tumor length and width (in mm), respectively.

MDA-MB-468 cells [1] = experiment: MTT growth assay and CalcuSyn synergy analysis in MDA-MB-468 cells; format: cell-based, human; conditions: for Dasatinib (Fa): MDA-MB-468
Protocol: (§1) Growth inhibition assay included the following aspects. […] At the end of the treatment period, cells were incubated with 10% of 5 mg/mL stock of MTT and incubated for 3 hours at 37° C.
(§2) Analysis of interaction between two drugs included the following aspects. Combination index (CI) method adapted for in vitro anticancer drug testing was used to determine the nature of interaction between the two agents as described by Majumdar APN, Banerjee S, Nautiyal J, et al. Curcumin synergizes with resveratrol to inhibit colon cancer. […] Based on CI values, the extent of synergism/antagonism may be determined.

MDA-MB-231 cells = experiment: MTT growth assay and CalcuSyn synergy analysis in MDA-MB-231 cells; format: cell-based, human
Protocol: as §1, §2

MDA-MB-468 cells [2] = experiment: Apoptosis in MDA-MB-468 cells (DNA fragmentation ELISA, acridine orange staining); conditions: MDA-MB-468 cells preincubated with inhibitor for 3 hours, then EBIP and dasatinib; FIG. 15B
EGFR = target: T1, EGFR (Homo sapiens, UniProt P00533); experiment: TGF-α-induced tyrosine phosphorylation of EGFR (Western blot); format: cell-based; conditions: preincubation 10 μg/ml for 30 min; 10 nM TGF-α for 10 min; FIG. 4
T1 construct: endogenous in cells

HER-3 = target: T2, HER-3 (Homo sapiens, UniProt P21860); experiment: Heregulin-induced phosphorylation of HER-3 in MDA-MB-453 cells; format: cell-based; conditions: preincubation, then heregulin, FIG. 8, FIG. 19
T2 construct: endogenous in cells; host or cells: MDA-MB-453
Description: (§3) The breast cancer MDA-MB-453 cells contain high levels of HER-2 and HER-3. […] Binding of heregulin HER-3 leads to activation and subsequent heterodimerization of HER-3 with one or more EGFR family members.
(§4) Western blot analysis included the following aspects.

[3] = system: Erks (extracellular signal-regulated kinases); experiment: TGF-α-induced phosphorylation of ERKs in HCT-116 cells (Western blot); format: cell-based; conditions: prior exposure, FIG. 6
[4] = system: breast cancer SKBR-3 cells; experiment: MTT growth assay in breast cancer SKBR-3 cells; format: cell-based, human; conditions: increasing concentrations, 48 h; FIG. 7
Protocol: as §1

c-Src = experiment: TGF-α-induced phosphorylation of Src in HCT-116 cells (Western blot); format: cell-based; conditions: prior exposure, FIG. 5
HER-2 = target: T3, HER-2 (Homo sapiens, UniProt P04626); experiment: Heregulin-induced phosphorylation of HER-2 in MDA-MB-453 cells; format: cell-based; conditions: preincubation, then heregulin, FIG. 8, FIG. 19
T3 construct: endogenous in cells; host or cells: MDA-MB-453
Description: as §3, §4

[5] = system: colon cancer HCT-116 cells; experiment: MTT growth assay in colon cancer HCT-116 cells; format: cell-based
Protocol: as §1

[6] = system: breast cancer SKBR cell xenografts; experiment: SKBR cell xenografts in SCID mice; format: in vivo; conditions: FIG. 9
Description: SKBR cells express high levels of HER-2 but contain little no HER-1/EGFR or HER-3.

T2 sequence (P21860 20-1342): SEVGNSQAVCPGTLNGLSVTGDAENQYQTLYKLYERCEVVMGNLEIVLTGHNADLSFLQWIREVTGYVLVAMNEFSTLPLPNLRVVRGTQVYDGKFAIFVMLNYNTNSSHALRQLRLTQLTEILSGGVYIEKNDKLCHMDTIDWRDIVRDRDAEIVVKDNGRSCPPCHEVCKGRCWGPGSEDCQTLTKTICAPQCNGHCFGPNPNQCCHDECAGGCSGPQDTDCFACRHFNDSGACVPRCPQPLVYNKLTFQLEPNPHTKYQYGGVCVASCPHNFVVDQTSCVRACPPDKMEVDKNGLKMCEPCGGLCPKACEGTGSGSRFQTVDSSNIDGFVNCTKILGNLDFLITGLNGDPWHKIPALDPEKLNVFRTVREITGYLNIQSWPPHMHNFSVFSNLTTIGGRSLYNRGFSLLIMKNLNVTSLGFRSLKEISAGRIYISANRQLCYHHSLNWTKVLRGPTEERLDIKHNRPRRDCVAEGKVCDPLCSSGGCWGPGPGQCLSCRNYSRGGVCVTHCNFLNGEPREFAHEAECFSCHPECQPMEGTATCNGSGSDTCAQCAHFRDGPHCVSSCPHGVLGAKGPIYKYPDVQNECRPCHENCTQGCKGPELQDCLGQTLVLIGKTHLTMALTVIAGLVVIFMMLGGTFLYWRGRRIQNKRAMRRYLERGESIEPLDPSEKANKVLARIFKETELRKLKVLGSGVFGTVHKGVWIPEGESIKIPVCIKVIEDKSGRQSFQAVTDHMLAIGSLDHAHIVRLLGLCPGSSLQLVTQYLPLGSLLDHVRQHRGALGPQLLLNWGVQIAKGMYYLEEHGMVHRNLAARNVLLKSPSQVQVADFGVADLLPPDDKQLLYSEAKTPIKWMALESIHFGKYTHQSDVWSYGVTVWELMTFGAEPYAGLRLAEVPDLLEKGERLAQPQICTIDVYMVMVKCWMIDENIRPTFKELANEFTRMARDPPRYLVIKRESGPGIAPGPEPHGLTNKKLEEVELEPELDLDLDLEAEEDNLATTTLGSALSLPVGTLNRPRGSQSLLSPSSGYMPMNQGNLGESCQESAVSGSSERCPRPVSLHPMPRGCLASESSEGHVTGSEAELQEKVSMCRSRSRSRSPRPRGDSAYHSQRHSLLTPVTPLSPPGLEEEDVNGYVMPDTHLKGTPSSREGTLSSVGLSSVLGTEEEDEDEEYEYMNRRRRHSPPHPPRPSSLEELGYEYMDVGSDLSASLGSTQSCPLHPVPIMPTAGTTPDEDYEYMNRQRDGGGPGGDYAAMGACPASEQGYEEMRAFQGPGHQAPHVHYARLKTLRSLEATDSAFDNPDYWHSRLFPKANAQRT

Cc1nc(Nc2ncc(C(=O)Nc3c(C)cccc3Cl)s2)cc(N2CCN(CCO)CC2)n1 [Dasatinib, dasatinib]
tumor growth, significance of inhibition (MDA-MB-468 xenografts; P<0.05, FIG. 16, Table 3): no significant inhibition | tumor weight at the end of 55 days, Mean ± SD (MDA-MB-468 xenografts; day-55, dasatinib 10 mg/kg gavage and/or EBIP 25 μg/mouse s.c., every other day, day 7 to 23): 584 ± 189 mg | inhibition (suppression) of tumor growth (MDA-MB-468 xenografts; vs vehicle-treated controls, dasatinib 10 mg/kg gavage and/or EBIP 25 μg/mouse s.c., every other day): about 27% | Dasatinib (Fa) (MDA-MB-468 cells [1]; Dasatinib 0.50 μM): 0.216 | Dasatinib (Fa) (MDA-MB-468 cells [1]; Dasatinib 1.0 μM): 0.286 | Dasatinib (Fa) (MDA-MB-468 cells [1]; Dasatinib 2.0 μM): 0.315 | Dasatinib (Fa) (MDA-MB-468 cells [1]; Dasatinib 4.0 μM): 0.382 | Dasatinib (Fa) (MDA-MB-231 cells; Dasatinib 0.50 μM): 0.354 | Dasatinib (Fa) (MDA-MB-231 cells; Dasatinib 1.0 μM): 0.322 | Dasatinib (Fa) (MDA-MB-231 cells; Dasatinib 2.0 μM): 0.353 | Dasatinib (Fa) (MDA-MB-231 cells; Dasatinib 4.0 μM): 0.392

Cbz-IETD-CH2F
effect of caspase inhibitor on apoptosis induction by the combined therapy (MDA-MB-468 cells [2]): blocked apoptosis induction by the combined therapy

Cbz-LEHD-CH2F
effect of caspase inhibitor on apoptosis induction by the combined therapy (MDA-MB-468 cells [2]): blocked apoptosis induction by the combined therapy

B1: rEGFR-447: rat ERRP that includes amino acids 1-447 but lacks the U region (SEQ ID NO: 15) (protein, listed as Rattus norvegicus)
chain: MRPSGTARTTLLVLLTALCAAGGALEEKKVCQGTSNRLTQLGTFEDHFLSLQRMYNNCEVVLGNLEITYVQRNYDLSFLKTIQEVAGYFLIALNTVERIPSEDLQIIRGNALYENTYALAILSNYGTNRTGLRELPMRNLQEILIGAVRFSNNPILCNMDTIQWRDIVQNVFMSNMSMDLQSHPSSCPKCDPSCPNGSCWGGGEENCQKLTKIICAQQCSHRCRGRSPSDCCHNQCAAGCTGPQKSDCLVCQKFQDEATCKDTCPPLMLYNPTTYQMDVNPEGKYSFGATCVKNCPRNYVVTDHGSCVRACGPDYYEVEEDGIRKCKKCDGPCRKVCNGIGIGEFKDTLSINATNIKHFKYCTAISGDLHILPVAFKGDSFTRTPPLDPRELEILKTVKEITGSLLIQAWPENWTDLHAFENLEIIRGRTKQHGQFSLAVVGLNITS
attenuation of TGF-α-induced tyrosine phosphorylation of EGFR (amino acid 845) (EGFR): do not attenuate | inhibition of heregulin-induced phosphorylation/activation of HER-3 (HER-3): neither rEGFR-447 nor hEGFR-501 is effective; also recorded: neither rEGFR-447 nor hEGFR-501 re effective | attenuation of TGF-α-induced phosphorylation of Erks [3]: not | inhibition of growth of SKBR-3 cells [4]: neither rEGFR-447 nor hEGFR-501 caused any apparent change in the growth | attenuation of TGF-α-induced phosphorylation of Tyr416 of c-Src (c-Src): less attenuation | inhibition of heregulin-induced phosphorylation/activation of HER-2 (HER-2): neither rEGFR-447 nor hEGFR-501 is effective; also recorded: neither rEGFR-447 nor hEGFR-501 re effective | inhibition of growth (MTT) ([5]; increasing doses, FIG. 3): only marginally effective

B2: ERRP: rat ERRP that includes amino acids 1-478 and includes the U region (SEQ ID NO: 16); pan-erbB inhibitor (protein, listed as Rattus norvegicus)
chain: MRPSGTARTTLLVLLTALCAAGGALEEKKVCQGTSNRLTQLGTFEDHFLSLQRMYNNCEVVLGNLEITYVQRNYDLSFLKTIQEVAGYFLIALNTVERIPSEDLQIIRGNALYENTYALAILSNYGTNRTGLRELPMRNLQEILIGAVRFSNNPILCNMDTIQWRDIVQNVFMSNMSMDLQSHPSSCPKCDPSCPNGSCWGGGEENCQKLTKIICAQQCSHRCRGRSPSDCCHNQCAAGCTGPQKSDCLVCQKFQDEATCKDTCPPLMLYNPTTYQMDVNPEGKYSFGATCVKNCPRNYVVTDHGSCVRACGPDYYEVEEDGIRKCKKCDGPCRKVCNGIGIGEFKDTLSINATNIKHFKYCTAISGDLHILPVAFKGDSFTRTPPLDPRELEILKTVKEITGSLLIQAWPENWTDLHAFENLEIIRGRTKQHGQFSLAVVGLNITSLPWQVPSLSWQAVTRPLHPLAQNRVSWDTGP
attenuation of TGF-α-induced tyrosine phosphorylation of EGFR (amino acid 845) (EGFR): greatly abrogates this stimulation | inhibition of heregulin-induced phosphorylation/activation of HER-3 (HER-3): able to inhibit; also recorded: about as equally effective as EBIP | attenuation of TGF-α-induced phosphorylation of Erks [3]: greatly attenuated | inhibition of growth of SKBR-3 cells [4]: markedly inhibit the growth in a dose-dependent manner | attenuation of TGF-α-induced phosphorylation of Tyr416 of c-Src (c-Src): abrogated | inhibition of heregulin-induced phosphorylation/activation of HER-2 (HER-2): able to inhibit; also recorded: about as equally effective as EBIP | tumor growth of SKBR xenografts ([6]; SCID mice, vs vehicle): noticeably decreased | inhibition of tumor growth ([6]; intratumoral 50 μg once a day, day 13 to 26, end of 40 day period, vs controls): over 50% | inhibition of growth of MDA-MB-468 cells (MDA-MB-468 cells [1]; immunoaffinity-purified protein, FIG. 12D): equally effective | inhibition of growth ([5]; dose of 20 μg/mL, vs corresponding controls, FIG. 18): 70%
